Reference: IntAct's records for PubMed 30323948

B1: Subversion of eukaryotic traffic protein A (Legionella pneumophila subsp. pneumophila), Q5ZU30 (parent)
chain: MYKIYSYLGWRIDMKTENLPQAGQEAQIDKKIHFIWVGHIMPQKNIQVVSEWAEKNPGYETIIWVDKKIAPAKELDLFILDMKSKGITVKDINEEGVCRDSIRHELDQESPNYGMVSDMLRLNILAAEGGIYLDSDILCSAPFPDEIYAPFGFLLSPWSQGANNTLCNDIILCSKGNQIIQQLADAIEQSYIARDSFEFTHEYASMKETKGERIAKTLGVTGPGFLFHQLKKMGILNDKSEMEAIHWELQDQRYLIDGSVKEPDYFYVPQNNTNDASWVPSIKRPGIENMSFQERLENAVQLIAFDIQKTGLFNLDHYANELKVKQNSWCIAAETSPELKPDSYLLIRPRDKTGEWTLYYVDEDKKLNPVTLPVIKGAIKLSEVSDPLRKFHTLLSQVSDPVNPTAHELKQIGRALIELKPRQDEWHCKNKWSGAEEIAQELWQRITSNETLRAQIKQCFTQFESLKPRVAELGLTRASGAGTEVEAHESTVKEQEIISQNTVGEEGTKEKNSVQLASENSSDEKIKTAHDLIDEIIQDVIQLDGKLGLLGGNTRQLEDGRVINIPNGAAMIFDDYKKYKQGELTAESALESMIKIAKLSNQLNRHTFFNQRQPETGQFYKKVAAIDLQTTIAAEYDNNHGLRI

Variants of: B1
Details: with rab1a_human RAB1A

Variant	effect of a mutation on the interaction
D134A;D136A	disrupting interaction

Variants of: B1
Details: with rab7a_human RAB7A

Variant	effect of a mutation on the interaction
D134A;D136A	disrupting interaction
